This note sets out measurements from patent US20200261490A1 (AARHUS UNIVERSITET, published 2020).

The target of assay [1] is T1, recombinant human stanniocalcin 1, C-terminally myc-his-tagged (human, UniProt P52823 34-247). The experiment in a line: SPR (Biacore T200); PAPP-A captured by immobilised mAb 234-5, purified STC1 as analyte, global 1:1 Langmuir fit. As to the method: (§1) Surface plasmon resonance experiments were carried out on a Biacore T200 (GE Healthcare). Using amine coupling, purified monoclonal antibody 234-5 was immobilized in flow cells (FC) 3 and 4 of a Series S CM5 Sensor Chip (GE Healthcare). To reach a coupling density of 5,000 response units (RU), the antibody was diluted to 30 μg ml⁻¹ in 10 mM sodium acetate, pH 4.75. Remaining active groups were blocked by a 7 min injection of 1 M ethanolamine, pH 8.0. […] The association phase was 180 s, followed by a 1,000 s dissociation phase. At the end of each binding cycle, both surfaces were regenerated by a 40 s injection of 0.1 M glycine, pH 2.5, and 0.5 M guanidine hydrochloride. […] Binding analysis was performed at 25° C., and data were collected at a rate of 10 Hz. Recorded signals were subtracted the background signal, as determined by the response obtained from the reference cell. Global fitting of a 1:1 Langmuir model was performed, using the Biacore T200 Evaluation Software, version 1.0.

The target in assay [2] is T1, recombinant human stanniocalcin 1, …. Description: SPR (Biacore T200), PAPP-A captured by immobilised mAb 234-5, STC1 injected at 0.20-6.26 nM, global 1:1 Langmuir fit. On the procedure: as §1

B1: recombinant human PAPP-A (pregnancy-associated plasma protein-A, pappalysin-1) (enzyme)
chain: EARGATEEPSPPSRALYFSGRGEQLRLRADLELPRDAFTLQVWLRAEGGQRSPAVITGLYDKCSYISRDRGWVVGIHTISDQDNKDPRYFFSLKTDRARQVTTINAHRSYLPGQWVYLAATYDGQFMKLYVNGAQVATSGEQVGGIFSPLTQKCKVLMLGGSALNHNYRGYIEHFSLWKVARTQREILSDMETHGAHTALPQLLLQENWDNVKHAWSPMKDGSSPKVEFSNAHGFLLDTSLEPPLCGQTLCDNTEVIASYNQLSSFRQPKVVRYRVVNLYEDDHKNPTVTREQVDFQHHQLAEAFKQYNISWELDVLEVSNSSLRRRLILANCDISKIGDENCDPECNHTLTGHDGGDCRHLRHPAFVKKQHNGVCDMDCNYERFNFDGGECCDPEITNVTQTCFDPDSPHRAYLDVNELKNILKLDGSTHLNIFFAKSSEEELAGVATWPWDKEALMHLGGIVLNPSFYGMPGHTHTMIHEIGHSLGLYHVFRGISEIQSCSDPCMETEPSFETGDLCNDTNPAPKHKSCGDPGPGNDTCGFHSFFNTPYNNFMSYADDDCTDSFTPNQVARMHCYLDLVYQGWQPSRKPAPVALAPQVLGHTTDSVTLEWFPPIDGHFFERELGSACHLCLEGRILVQYASNASSPMPCSPSGHWSPREAEGHPDVEQPCKSSVRTWSPNSAVNPHTVPPACPEPQGCYLELEFLYPLVPESLTIWVTFVSTDWDSSGAVNDIKLLAVSGKNISLGPQNVFCDVPLTIRLWDVGEEVYGIQIYTLDEHLEIDAAMLTSTADTPLCLQCKPLKYKVVRDPPLQMDVASILHLNRKFVDMDLNLGSVYQYWVITISGTEESEPSPAVTYIHGSGYCGDGIIQKDQGEQCDDMNKINGDGCSLFCRQEVSFNCIDEPSRCYFHDGDGVCEEFEQKTSIKDCGVYTPQGFLDQWASNASVSHQDQQCPGWVIIGQPAASQVCRTKVIDLSEGISQHAWYPCTISYPYSQLAQTTFWLRAYFSQPMVAAAVIVHLVTDGTYYGDQKQETISVQLLDTKDQSHDLGLHVLSCRNNPLIIPVVHDLSQPFYHSQAVRVSFSSPLVAISGVALRSFDNFDPVTLSSCQRGETYSPAEQSCVHFACEKTDCPELAVENASLNCSSSDRYHGAQCTVSCRTGYVLQIRRDDELIKSQTGPSVTVTCTEGKWNKQVACEPVDCSIPDHHQVYAASFSCPEGTTFGSQCSFQCRHPAQLKGNNSLLTCMEDGLWSFPEALCELMCLAPPPVPNADLQTARCRENKHKVGSFCKYKCKPGYHVPGSSRKSKKRAFKTQCTQDGSWQEGACVPVTCDPPPPKFHGLYQCTNGFQFNSECRIKCEDSDASQGLGSNVIHCRKDGTWNGSFHVCQEMQGQCSVPNELNSNLKLQCPDGYAIGSECATSCLDHNSESIILPMNVTVRDIPHWLNPTRVERVVCTAGLKWYPHPALIHCVKGCEPFMGDNYCDAINNRAFCNYDGGDCCTSTVKTKKVTPFPMSCDLQGDCACRDPQAQEHSRKDLRGYSHG
notes: Secreted from transfected HEK293T cells and used in culture medium; also called wt PAPP-A; huPAPP-A
Turning to B1, the Kd in assay [1] is 0.075 nM. For the same molecule, in assay [2], the Kd amounted to 0.0749 nM, the koff was found to be 0.000208 s⁻¹ and the kon is 2.78e+06 M⁻¹ s⁻¹.

A word on the Kd: it is the constant that tells how readily two partners part at equilibrium. One may read the koff as the first-order rate constant of dissociation. Usually kon stands for a measure of how fast the partners come together.
